Reference: the DeepSol protein solubility set

Test: soluble on expression in E. coli; label from the status in PepcDB or PDB records

Sequence | soluble on expression in E. coli
MSPQKRVKNVQAQNRTSQGSSSFQTTLSAWKVKQDPSNSKNISKHGQNNPVGDYEHADDQAEEDALQMAVGYFEKGPIKASQNKDKTLEKHLKTVENVAWKNGLASEEIDILLNIALSGKFGNAVNTRILKCMIPATVISEDSVVKAVSWLCVGKCSGSTKVLFYRWLVAMFDFIDRKEQINLLYGFFFASLQDDALCPYVCHLLYLLTKKENVKPFRVRKLLDLQAKMGMQPHLQALLSLYKFFAPALISVSLPVRKKIYLQNSENLWKTALLAVKQRNRGPSPEPLKLMLGPANVRPLKRKWNSLSVIPVLNSSSYTKECGKKEMSLSDCLNRSGSFPLEQLQSFPQLLQNIHCLELPSQMGSVLNNSLLLHYINCVRDEPVLLRFHYWLSQTLQEECIWYKVNNYEHGKEFTNFLDTIIRAECFLQEGYYSCEAFLYKSLPLWDGLSCRSQFLQLVSWIPFSSFSEVKPLLFDHLAQLFFTSTIYFKCSVLQSLKELLQNWLLWLSMDIHMKPVTNSPLETTLGGSMNCVSKLIHYVGWLSTTAMRLESNNTFLLHFILDFYEKVCDIYINYDLPLVVLFPPGIFYSALLSLDTSILNQLCFIMHRYRKNLTAAKKNELVQKTKSEFNFSSKTYQEFNYYLTSMVGCLWTSKPFAKGIYIDPEILEKTGVAEYKNSLNVVHHPSFLSYAVSFLLQESPEERTVNVSSIRGKKWSWYLDYLFSQGLQGLKLFIRSSVHHSSIPRAEGINCNNQY | soluble
MQFYRRLTAIKAISFDLDDTLYNNRPIMQSVEQQMAHYFTEKFAILLPELLVEPKQVFNRRFWAPYRQQAIKAHQDISHDVVRLRFESYRLGLLAHNLSAEAARKEAQAGLDYFINLRSDFTVPKESHELLASLSKAFPLVSISNGNVDTRALGIDHYFQHIYHAGFQTGNCHDESEHLLKQKPETDMFSLVCQQLDILPEQLLHVGDCGFADIHGALNAGCQTAWLPQYGVGKSLQQIPHIELSLVSDLSQLIRKA | not soluble
MGSDKIHHHHHHMPRPRRTQISLEDTPYYHCCSRVVRRAFLCGDDTYSGKNYDHRRTWVESLLFELEAIFAIDVAAFAVMSNHLHLVLRVDIDSANGWTDREVLEQWHKLFKGDELTQKFAKGELVEAYEVSRLKHSIAIYRSRLCDISWFMRCLNEPIARQANQEDNCTGRFWEGRFKSQALLDEAAVLACMTYVDLNPIRAQLADTPEQSDHTSIQLRIRAALKGEQPSNLLPFIANECDNQPNGIAFSLMDYLQLVDDTGRIIRNDKRGYISESSAKILTRLNIPHDNWLKLTTDFGKLFHGPVGTLQELTDYCEHLEKRRRHFAASCQHFKSN | not soluble
NGGVGVDVELITSINVENDTFIERNFTPQEIEYCSAQPSVQSSFAGTWSAKEAVFKSLGVKSLGGGAALKDIEIVRTNKNAPAVELHGNAKKAAEEAGVTDVKVSISHDDLQAVAVAVSTKK | soluble
VDKRESYTKEDLLASGRGELFGAKGPQLPAPNMLMMDRVVKMTETGGNFDKGYVEAELDINPDLWFFGCHFIGDPVMPGCLGLDAMWQLVGFYLGWLGGEGKGRALGVGEVKFTGQVLPTAKKVTYRIHFKRIVNRRLIMGLADGEVLVDGRLIYTASDLKVGLFQDTSAF | soluble
MAHHHHHHMFNEAAVPFIQTARDNGLLFGGSDAPAMIDYTSEHGKSYHVRGSIFEVAPHFEVLNGIGYGAYGVVCAAVDLRLVASSVYYNEAMRTIEEEGRIVTRQRRGHDAPVYFRTRAVLDEAGRGGPVRVPHLYSEPFKRRTLARGEVSPFVAIKKVTKVFDDLVDGRRILREIKLLRYLQGHPNIVRLMEVGRPPAPTGASSSAAFDDIYLVTDLMDTDLGALLRSSQEIAMDQLRFIAYQLMKVLVYVHSSGVIHRDLKPGNILLNGNCDMKLCDFGLSRGGVPAWPHERTLTAVATAAESSAKELEDWGLFCWSSSAARGASSAPHAAKQPPLYSLTDYVVTRYYRAPELLIMGRYNHAIDMWSAGCILAEMVLRRPLFTGANYLSQLALILETPGLRGVPQTPEEAAALFEGGEEGKHFINDILFHKTARRRDPLTLSDQVHSQVLFHSTLFGFKVDVPISLGILIAKLLSFDPRKRPTALEALRDPFFWPLYDSRDEILRCPASDPSVAREQIDDIAAYQKAHPCVVVDESPVFTWEFDHRITSAQALRGLFEEECQISRDVQQQLERQQRLRSSPVVKCSERRTLERSLFSGASDGSSGGDGAH | not soluble
MTKVTREEVEHIANLARLQISPEETEEMANTLESILDFAKQNDSADTEGVEPTYHVLDLQNVLREDKAIKGIPQELALKNAKETEDGQFKVPTIMNEEDA | soluble
